Kd data for two substances are collected here from article PMC5462994.

For assay [1], the target named is Recombinant M.tb H37Rv GAPDH, wild type (Mycobacterium tuberculosis H37Rv) (UniProt P9WN83). The assay is described as follows: ELISA; solid phase binding assay: 2 ug/well GAPDH coated on polystyrene wells in PBS pH 7.4; 7.5-1,000 nM biotinylated Lf in PBS with 1% fish skin gelatin, 25°C, 2 h; detected with anti-biotin; one-site specific binding fit.
For assay [2], the target named is Transferrin (Homo sapiens) (UniProt P02787). Conditions: cited from earlier work.
Chain of UniProt P02787 (P02787 20-698): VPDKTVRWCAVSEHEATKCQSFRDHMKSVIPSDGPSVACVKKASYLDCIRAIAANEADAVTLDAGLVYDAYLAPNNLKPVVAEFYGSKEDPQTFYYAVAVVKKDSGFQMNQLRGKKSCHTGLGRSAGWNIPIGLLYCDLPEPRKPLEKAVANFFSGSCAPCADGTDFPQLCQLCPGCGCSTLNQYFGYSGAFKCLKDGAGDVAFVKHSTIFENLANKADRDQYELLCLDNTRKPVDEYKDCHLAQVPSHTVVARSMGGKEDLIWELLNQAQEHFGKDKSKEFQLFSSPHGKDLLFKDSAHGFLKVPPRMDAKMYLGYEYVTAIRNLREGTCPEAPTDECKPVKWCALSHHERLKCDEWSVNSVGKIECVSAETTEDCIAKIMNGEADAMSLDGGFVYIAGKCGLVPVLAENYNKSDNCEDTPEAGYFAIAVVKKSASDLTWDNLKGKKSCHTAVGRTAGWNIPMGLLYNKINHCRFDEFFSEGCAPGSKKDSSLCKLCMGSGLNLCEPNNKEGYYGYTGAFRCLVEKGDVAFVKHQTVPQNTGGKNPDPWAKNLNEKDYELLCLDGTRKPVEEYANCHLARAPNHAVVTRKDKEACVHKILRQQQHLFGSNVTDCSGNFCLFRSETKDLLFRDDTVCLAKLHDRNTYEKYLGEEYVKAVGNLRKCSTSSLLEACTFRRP

Chain of GAPDH (P9WN83 whole entry): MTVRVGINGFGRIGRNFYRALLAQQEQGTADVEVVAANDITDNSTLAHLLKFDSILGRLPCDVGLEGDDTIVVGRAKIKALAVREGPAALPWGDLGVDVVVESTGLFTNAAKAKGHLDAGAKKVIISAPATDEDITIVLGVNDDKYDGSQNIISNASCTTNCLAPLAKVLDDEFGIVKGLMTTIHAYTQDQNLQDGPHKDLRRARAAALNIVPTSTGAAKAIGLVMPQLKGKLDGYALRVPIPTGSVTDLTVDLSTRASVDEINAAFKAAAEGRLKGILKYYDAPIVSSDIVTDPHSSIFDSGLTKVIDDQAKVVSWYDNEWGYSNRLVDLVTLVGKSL

The term Kd denotes the free concentration of one partner at which half of the binding sites on the other are occupied at equilibrium, for simple one-to-one binding. In the case of “Biotinylated human lactoferrin (natural protein)”, the dissociation constant Kd in assay [1] is 31.7 nM. In the case of GAPDH (from UniProt P9WN83), the dissociation constant Kd in assay [2] was 160 nM.
